Experimental data reported in the RNAGym collection of RNA variant scans (doi:10.1073/pnas.2313332121).

B1: TPR t1 (parent)
chain: GACCAAUCUGCCCUCAGAGCUCGAGAACAUCUUCGGAUGCAGAGGAGGCAGGCUUCGGUGGCGCGAUAGCGCCAACGUCCUCAACCUCCAAUGCAUCCCACCACAUGAUGAUGCCUGAAGAGCCUUGGUUUUUUG

Variants of: B1
Test: polymerase ribozyme fitness, log enrichment relative to wild type (log ratio); higher = more active; in vitro selection for triplet polymerase activity
Summary of the method: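 A single round of triplicate in vitro selection, including frozen incubation at −7 °C, was applied to PCR-built, transcribed mutant libraries of each subunit of a heterodimeric triplet polymerase ribozyme. Illumina sequencing of input and output libraries retained genotypes with ≥10 input reads and ≥1 read per output. Fitness is the base-2 logarithm of genotype enrichment divided by wild-type enrichment, from inverse-variance-weighted replicate averages.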

Variant | polymerase ribozyme fitness (log ratio)
GACCAAUCUGUCCUCAGAGCUCGAGAACAUCUUCGGAUGCAGAGGAGGCAGGCUUCGGUGGCGCGAUAGCGACAACGACCUCAACCUCCAAUGCAUACCACCACAUGAUGAUGCCUGAAGAGCCUUGGUUUUUUG [C11U C72A U78A C97A] | -5.56
GACCAAUCUGUCCUCAGAGCUCGAGAACAUCUUCGGAUGCAGAGGAGGCAGGUUUCGGUGGCGCGAUAGCGCCAACGUCCUCAGCCUCCAAUGCAUCCCACCACAUGAUGAUGCCUGAAGAGCCUUGGUUUUUUG [C11U C53U A84G] | -1.32
GACCAAUCUGUCCUCAGAGCUCGAGAACAUCUUCGGAUGCAGAGGAGGCAGGCUUAGGUGGCGCGAUAGCGCCAACGUCCUCAACCUCCAAUGCAUCCCACCAAAUGAUGAUGCGUGAAGAGCCUUGGUUUUUUG [C11U C56A C104A C115G] | -6.27
GACCAAUCUGUCCUCAGAGCUCGAGAACAUCUUUGGAUGCAGAGGAGGCAGGCUUCGGUGGCGCGAUAGCGCCAACGUCCUCAACCUCCAAUGCAUCCCACCACAUGAUGAUGCCUGAAGAGCCUUGGUUUUUUG [C11U C34U] | -3.97
GACCAAUCUGUCCUCAGAGUUCGAGAACAUCUUCGGAUGCAGAGGAGGCAGGCUUCGGUGGCACGAUAGCGCCAACGUCCUCAACCCCCAAUGCAUCCCACCACAUGAUGAUGCCUGAAGAGCCUUGGUUUUUUG [C11U C20U G63A U87C] | -1.21
GACCAAUCUGUCCUCAGAGCUCGAGAACAUCUUCGGAUGCAGAGGAGGCAGGCUUCGGUGGCGCGAUAGCGCCAACGUCCUCAACCUCCAAUGCAUCCCACCACAUGAUGAUGGCUGAAGAGCCUUGGUUUUUUG [C11U C114G] | -3.54
GACCAAUCUGUCCUCAGAGCUCGAGAACAUCUUCGGAUGCAGAGGAGGCAGGCUUCGGUGGCGCGAUAGCGCCAACGUCCUCAACCUCCAAUGCAUCCCACCACAUGAUGAUGUCUGAAGAGCCUUGGUUUUUUG [C11U C114U] | -1.57
GACCAAUCUGUCCUCAGAGCUCGAGAACAUCUUCGGAUGCAGAGGAGGAAGGCUUCGGUGGCGCGAUAGCGCCAACGUCCUCAACCUCCAAUGCAUCCCACCACAUUAUGAUGCCUGAAAAGCCUUGGUUUUUUG [C11U C49A G107U G120A] | -4.45
GACCAAUCUGUCCUCAGAGCUCGAGAACAUCUUCGGAUGCAGAGGAGGAAGGCUUCGGUGGCGCGAUAGCGCCAACGUCCUCAACCUCCAAUGCAUCCCACCACAUGAUGAUGCCUGAAGAGCCUUGGUUUUUUG [C11U C49A] | -1.28
GACCAAUCUGUCCUCAGAGAUCGAGAACAUCUUCGGAUGCACAGGAGGCAGGCUUCGGUGGCGCGAUAGCGCCAACGUCCUCAACCUCCAAUGCAUCCCACUACAUGAUGACGCCUGAAGAGCGUUGGUUUUUUG [C11U C20A G42C C102U U112C C124G] | -5.12
GACCAAUCUGUCCUCAGAGCUCGAGAACAUCUUCGGAUGGAGAGGAGGAAGGCUGCGGUGACGCGAUAGCGCCAACGUCCUCAACCUCCAAUGCAUCCCACCACAUGAUGAUGCCUGAAGAGCCUUGGUUUUUUG [C11U C40G C49A U55G G61A] | -1.51
GACCAAUCUGUCCUCAGAGCUCGAGAACAUCUUUGGAUGCAGAGGAGGCAGGCUUCGGUGGCGCGAUAGCACCAACGUCCUCAACCUCCAAUGCAUCCCACCACAUGAUGAUGCCUGAAGCGCCUUGGCUUUUUG [C11U C34U G71A A121C U129C] | -6.13
GACCAAUCUGUCCUCAGAGCUCGAGAACAUCUUCGGAUGCAGAGGAGGCAGGCUUCGGUGGCGCGAUAGAGCCAACGUCCUCAACCUCCAAUGCAUCCCACCACAUGAUGAUGCCUGAAGAGCCUUGGAUUUUUG [C11U C70A U129A] | -3.59
GACCAAUCUGUCCUCAGAGCUCGAGAACAUCUUCGGAUGCAGAGGAGGCAGGCUUCGGUGGCGCGAUAGCGCCAACGUCCUCAAGCUCCAAUGCAUCCCACCACAUGAUGAUGCCUGAAGAGCCUUGGUUUUUUG [C11U C85G] | -2.37
GACCAAUCUGUCCUCAGAGCUCGAGAACAUCUUCGGAUGCAGAGGAGGCAGGCUUAGGUGGCGCGAUAGCGCCAACGUCCUCAACCUCCAUUGCACCCCACCACAUGAUGAUGCCUGAAGAGCCUUGGUUUUUUG [C11U C56A A91U U96C] | -3.51
GACCAAUCUGUCCUCAGAGCUCGAGAACAUCUUCGGAUGCAGAGGAGGCAGGCUUCGGUGGGGCGAUAGCGCCAACGUCCUCAACCUCCAAUGCAUCCCACCACAUGAUGAAGCCUGAAGAGACUUUGUUUUUUG [C11U C62G U112A C123A G127U] | -0.368
GACCAAUCUGUCCUGAGAGCUCGAGAACAUCUUCGGAUGCAGAGGAGGCAUGCUUCGGUGGCGCGAUAGCGCCAACGUCCUCAACCUCCAAUGCAUCCCACCACAUGAUGAUGCCUGAGGAGCCUUGGUUUUAUG [C11U C15G G51U A119G U133A] | -2.44
GACCAAUCUGUCCUCAGAGCUCGAGAACAUCUUCGGAUGUAGAGGAGGCAGGCUUCGGUUGCGCGAUAGCGCCAACCUCCUCAACCUCCAAUGCAUCCCACCACAUGAUGUUGCCUGAAGAGCCUUGGUUUUUUG [C11U C40U G60U G77C A111U] | -4.37
GACCAAUCUGUCCUCAGAGCUCGAGAACAUCUUCGGAUGCAGAGGAGGCAGGCUUCGGUGGCGCGAUAGCGCCAACGUCCUCAAGCUCCAAUGCAUCCCACCACAUGAGGAUGCCUGAAGAGACUUGGUUUUUUG [C11U C85G U109G C123A] | -5.74
GACCAAUCUGUCCUCAGAGCUCGAGAACAUCUUCGGAUGCAGAGGAGGCAGGUUUCGGUGGCGCGAUAGCGUCAACGUCCUGAACCUCCAAUGCAUCCCACCACAUGAUGAUGCCUGAAGAGGCUUGGUUUUUUG [C11U C53U C72U C82G C123G] | -0.853
GACCAAUCUGUCCUCAGAGCUCGAGAAUAUCUUCGGAUGCAGAGGAGGCAGGCUUCGGUGGCGCGAUAGCGCCAACGUCCUUAACCUCCAAUGCAUCCCACCACAUGAUGAUGCCUGAAUAGCCUUGGUUUUUUG [C11U C28U C82U G120U] | -2.14
